Measurements as given in IntAct's records for PubMed 20453860.

B1: Vacuolar protein sorting-associated protein 33 (Saccharomyces cerevisiae), P20795 (parent)
chain: MNRFWNTKKFSLTNADGLCATLNEISQNDEVLVVQPSVLPVLNSLLTFQDLTQSTPVRKITLLDDQLSDDLPSALGSVPQMDLIFLIDVRTSLRLPPQLLDAAQKHNLSSLHIIYCRWKPSFQNTLEDTEQWQKDGFDLNSKKTHFPNVIESQLKELSNEYTLYPWDLLPFPQIDENVLLTHSLYNMENVNMYYPNLRSLQSATESILVDDMVNSLQSLIFETNSIITNVVSIGNLSKRCSHLLKKRIDEHQTENDLFIKGTLYGERTNCGLEMDLIILERNTDPITPLLTQLTYAGILDDLYEFNSGIKIKEKDMNFNYKEDKIWNDLKFLNFGSIGPQLNKLAKELQTQYDTRHKAESVHEIKEFVDSLGSLQQRQAFLKNHTTLSSDVLKVVETEEYGSFNKILELELEILMGNTLNNDIEDIILELQYQYEVDQKKILRLICLLSLCKNSLREKDYEYLRTFMIDSWGIEKCFQLESLAELGFFTSKTGKTDLHITTSKSTRLQKEYRYISQWFNTVPIEDEHAADKITNENDDFSEATFAYSGVVPLTMRLVQMLYDRSILFHNYSSQQPFILSREPRVSQTEDLIEQLYGDSHAIEESIWVPGTITKKINASIKSNNRRSIDGSNGTFHAAEDIALVVFLGGVTMGEIAIMKHLQKILGKKGINKRFIIIADGLINGTRIMNSIS
partner: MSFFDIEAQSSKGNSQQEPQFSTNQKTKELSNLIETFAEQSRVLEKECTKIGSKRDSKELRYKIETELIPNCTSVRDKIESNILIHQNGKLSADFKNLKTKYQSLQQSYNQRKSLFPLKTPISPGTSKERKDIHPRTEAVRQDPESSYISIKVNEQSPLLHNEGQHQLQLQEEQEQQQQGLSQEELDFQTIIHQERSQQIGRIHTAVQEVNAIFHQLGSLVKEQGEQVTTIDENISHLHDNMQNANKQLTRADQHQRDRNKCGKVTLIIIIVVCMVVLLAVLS

Variants of: B1
Conditions: with vam3_yeast VAM3, Q12241

effect of a mutation on the interaction | Variant
decreasing interaction | L184P
decreasing interaction | D88K
